Earlier results on one molecule are cited in patent publication US20070212358A1, “Compositions and Methods for Effecting Controlled Posterior Vitreous Detachment” (priority 2006, published 2007).

The test system of the series is vitreoretinal interface. Conditions: rabbit eyes.

B1: plasmin (protein, UniProt P00747 20-580; P00747 581-810, looked up)
Plasmin heavy chain A: EPLDDYVNTQGASLFSVTKKQLGAGSIEECAAKCEEDEEFTCRAFQYHSKEQQCVIMAENRKSSIIIRMRDVVLFEKKVYLSECKTGNGKNYRGTMSKTKNGITCQKWSSTSPHRPRFSPATHPSEGLEENYCRNPDNDPQGPWCYTTDPEKRYDYCDILECEEECMHCSGENYDGKISKTMSGLECQAWDSQSPHAHGYIPSKFPNKNLKKNYCRNPDRELRPWCFTTDPNKRWELCDIPRCTTPPPSSGPTYQCLKGTGENYRGNVAVTVSGHTCQHWSAQTPHTHNRTPENFPCKNLDENYCRNPDGKRAPWCHTTNSQVRWEYCKIPSCDSSPVSTEQLAPTAPPELTPVVQDCYHGDGQSYRGTSSTTTTGKKCQSWSSMTPHRHQKTPENYPNAGLTMNYCRNPDADKGPWCFTTDPSVRWEYCNLKKCSGTEASVVAPPPVVLLPDVETPSEEDCMFGNGKGYRGKRATTVTGTPCQDWAAQEPHRHSIFTPETNPRAGLEKNYCRNPDGDVGGPWCYTTNPRKLYDYCDVPQCAAPSFDCGKPQVEPKKCPGR
Plasmin light chain B: VVGGCVAHPHSWPWQVSLRTRFGMHFCGGTLISPEWVLTAAHCLEKSPRPSSYKVILGAHQEVNLEPHVQEIEVSRLFLEPTRKDIALLKLSSPAVITDKVIPACLPSPNYVVADRTECFITGWGETQGTFGAGLLKEAQLPVIENKVCNRYEFLNGRVQSTELCAGHLAGGTDSCQGDSGGPLVCFEKDKYILQGVTSWGLGCARPNKPGVYVRVSRFVTWIEGVMRNN
modifications: Plasmin
In the case of B1, the “posterior vitreous detachment (PVD) in eyes treated with plasmin” value (plasmin treatment) was “some areas of PVD”. For the same molecule, the “detachment of the vitreous after plasmin treatment and vitrectomy” value (plasmin treatment with subsequent vitrectomy) is “substantially detached”.
